The record followed here is patent US20180086841A1.

Assay [1] addresses human CD27 (human) (UniProt P26842). The experiment in a line: flow cytometry on CHO-K1 cells transfected with CD27 (empty vector: + 5.32).
For assay [2] the target is unchanged. The assay can be described thus: flow cytometry on CHO-K1 cells transfected with CD27 (empty vector: GM FITC 212). On the technique in general: A flow cytometer gives signals particle by particle.
Assay [3] has as its target human CD27 (A59T) (human) (UniProt P26842). The experiment in a line: flow cytometry on CHO-K1 cells transfected with CD27 A59T (empty vector: + 5.32).
Assay [4] has the same target. The experiment in a line: flow cytometry on CHO-K1 cells transfected with CD27 A59T (empty vector: GM FITC 212).

Sequence of Fc-mCD70 (O55237 45-195): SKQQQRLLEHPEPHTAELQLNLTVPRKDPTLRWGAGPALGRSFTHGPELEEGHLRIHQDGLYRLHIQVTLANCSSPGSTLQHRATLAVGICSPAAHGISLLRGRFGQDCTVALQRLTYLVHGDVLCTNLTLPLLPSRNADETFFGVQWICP

For the substance “Fc-mCD70 (from UniProt O55237 45-195) (Fc fusion)”, the cells in the + gate was 58.9 in the assay with human CD27 (human) [1] and 52.5 in assay [3]. Further, the values for the GM FITC (with human CD27 (human) [2]; in assay [4]) were 1280 and 1060, respectively.
